# From publication PMC6020066 (Science (New York, N.Y.), 2018)
# Target: HA-GST-LC3B (UniProt Q9GZQ8 1-120)
# Assay: pull-down
binder,measurement,value
purified FLAG-NUFIP1-HA-ZNHIT3 complex (complex) chain 1: not shown chain 2: MASLKCSTVVCVICLEKPKYRCPACRVPYCSVVCFRKHKEQCNPETRPVEKKIRSALPTKTVKPVENKDDDDSIADFLNSDEEEDRVSLQNLKNLGESATLRSLLLNPHLRQLMVNLDQGEDKAKLMRAYMQEPLFVEFADCCLGIVEPSQNEES,binding result,binds
